This series is described as follows: label from the status in PepcDB records.

Consider “MMKTMDIIIPREFVSDDQYLLQKLCVVNNDFVKEGEILALIESSKSVIDVTSPADGYVYFFSDEGDIVSVGERLALLASTKEALQVEIENSNKNSQRRKESETKSEDVSLSGVRCSKKALLLMKQHNIDVGAFDGLGMVTAQDVEHYLSSREKAVKATVAPSSVNRQKIIILGGGGHSKVCIDILRQAQSFTIAGILDSIQDIGAEVLGIPVIGRDTMPELLKTRESGISLAVNGIGLIPDHRNRCKLFERLLEAGFHLPNLIHPKASIEPSAKLGEGNQIMAGAIIGSDVTVGNYCLINSGVVVSHDCIIDDHVHLAPGALLAGAVRVGRNSLIGMGVTIYAKVTIGSNVVIANGANVFHDVPDNTVVKI”, for which the protein production entry is “failed”.

For the sequence “MMLAGCQSEEETSQFLLACKYDAPATIAAMLDNGIDVDGQDKTGLSGLMVAAAENRRDVVELLLKRRAKPNLQTRQGVTALMLAAARGSDTAIIGDLLQAGASVNQTSIDKSTALMSAISDGGDVRNDYQHILAMKKPDAPVEEESTLDKIVGATAAKSLATGNRALMTEDMALQLAPGAFKKNVDEIVALLLKHGADVKAVNVSGESAFFLAVDHARSAETITTLANAGADTSLADKSGTTPLMLAAAGDDPDLVLALSASGVEVDKPNREGLTALQVAAGQGAPAVIAALAQRGAKVDQLSANDLSPLMLAVKMNNKANVEALLAAGASVNLSNKAGYTAIGYSRAGEVRQLLLAQHAELKGQAAHMAQSELQFCANAFADKLAYSDIARAVNNDTRPDIMRHQQSCPELGELTMLLGEFTFTPAGATYLGEPVTCKVSEYRKTFEVNCR”, the protein production result was “failed”.

On to “MMLLQQFKKIITVLIQVLVIMGITYLGNVIQRYMHIPIAGSIVGLLLFFLLLQFKVIPAKWVNEGSNFFLTTMVFFFVPSVVGIMDVVPMINLNFILFFSMILLGTCCVALISGFIAEKMVKNKQDGNGVN”, for which the protein production entry is reported as “failed”.

For “MMLSSNSFSLNLSNEDYIWPLEEDQEETTDSSGPMMLSPPLPEGACFNFEDRNTVYVHSRRPEDTPKSFELYSIPEDLALDSPFPSCEQTTFFTTKPDKSFLLDIKNSSPLNIGRMQNSRS”, the protein production entry is “not failed”.

As to “MMLYRYTQTKLAQIASELKQTGLWSATAPSVEAMASTAPFACDLMPFEQWLQFIFIPRMQALIDAGQALPSQIAIAPMAEHLWSEQAALAPLISTLNELDILLNEPRLEHHHHHH”, the protein production entry is “not failed”.

“MMMIFAVLGIFDFLRGEDEGESLEKYLRKLEDLLEEEFDTLVRIAGFYAEEGDTREALDYLERAYRVASEMNDEELMAFALDSMGDVYLSDRKVKTAMEYFMEALRIYTSVNSPLRADLREKIKEVEKIREAMDIASINRLREESESGMPEVDLEVIEPLLNRLVDSVQSLTLYEAGSYEDSISQIMEAYQIARDIGDTSTEASLQLLLGLYSLKNEDFDESRRYLKKAEALFRKTNNELGLAVALVLLGTLDFIRNNADGVASSFRAAVEILQKLDEKELESVTLELLNTLYSF”: the protein production result is recorded as “failed”.

For “MMMLQGSKSGSEMEVTWEDQQNINIFSRLNNRVHDLDDDIKSAKEKCENLEDAGNELILADEEMVRFQIGEVFAHVPRDDVETKIEEMKEATCKSLEKLEQEKESIVTQMAALKKVLYAKFKDSINLEED”, the protein production result is “failed”.

On to “MMNDSKARYGSITRFFHWSMAILVSWQFLKFFDRINDGEHWVGETLVPWHISIGSLILVLIVLRLGWTVKEKGNRPEHGSIIGVLAKIGHGLLYVALVLMPVTGIFYMVGNGYGLSAFNLEIIAKGEEVSWLINIGSLHSYIAWGLLFLVAGHIGMAFVHQFIIKDGTLKRMM”, for which the protein production result is reported as “failed”.

In the case of “MMNTSDNHALGDFLRARRQRLDPATFGFPAGRRRTPGLRREEVAQLASISPTWYTWLEQGRGGAPSREVLERIARGLRLTTPEREHLFILAFGHPPQTRLTVTDDMTPRLQRVLDAFTIPAIIRTASW”, the protein production result is “failed”.

For the sequence “MMPLILSNTGEEVVIKKISGSDKTRTFLNSIGFVVGTNVKIVSKIDGNLIIDVKDTRVALDKKMASRIIILEHHHHHH”, the protein production result is reported as “failed”.

“MMPRLFLLAGLVSAPPLSLDPEPPSSIKMTYSGIVDAGSTGTRLNIYGFLDGEIRHQGLFTNTSRLASIEDDEEIKTSIRELFAHAEPFYSNIKKMPIGFYGTAGFRTLDKSRSDHVLDLIRSELKDYNLKEAEVINGVDEGKLALMALVLSNRGTDAGHRSLGIVDMGGGSTQISLLERDGKVISESIDLGITVLSLSDPDECKIEGDAEQESCASHIASKLAGVAIRPFLNSVDDLYLLSYFHDEFGKVIRSEKTSMREVKDEFYKRCNLLESHECRRLFYLISFIKSLGIEDTKAIHQIDTNNGINITWASGKGYELNKKYN”: the protein production result was “failed”.

For the sequence “MMRHSSLRLIIGGLILLLFVLNVFSKEQGSHSHKRSHSAKRFSRDSNSARERRPNIILILTDDQDVELGSLNFMPRTLRLLRDGGAEFRHAYTTTPMCCPARSSLLTGMYVHNHMVFTNNDNCSSPQWQATHETRSYATYLSNAGYRTGYFGKYLNKYNGSYIPPGWREWGGLIMNSKYYNYSINLNGQKIKHGFDYAKDYYPDLIANDSIAFLRSSKQQNQRKPVLLTMSFPAPHGPEDSAPQYSHLFFNVTTHHTPSYDHAPNPDKQWILRVTEPMQPVHKRFTNLLMTKRLQTLQSVDVAVERVYNELKELGELDNTYIVYTSDHGYHLGQFGLIKGKSFPFEFDVRVPFLIRGPGIQASKVVNEIVLNVDLAPTFLDMGGVPTPQHMDGRSILPLLLSRNRAVRDNWPDSFLIESSGRRETAEQIAESRARLQIERRNMKLANSSLLEDFLEGAGESTTIVSSSSTAATLMSSTAQQPEDGEEEVETDNEEDDVDGDGAMDSSAAALEEDDLDDAAFEEGDEELDQEFQQNNDLPLAPYITKMMRLNSECSDPALLKNCLPGQKWKCVNEEGRWRKHKCKFHLQLEHQLAAMPRKQYQRNCACFTPDGVVYTKIRAPSAGLHRVNKRTHNGPGRRRNKREVFHTELPDEMEELLDLHQVVDQLVDHTHRSKRDLPASSNETIAQVIQQIQSTLEILELKFNEHELHASNSSGNSYERGEKYTKSGGHRCFVDATTAKVNCSNVIYDDEKTWRTSRTQIDMLIKLLKDKIGKLKEMKKQLRESNKQALAAGRRNDNRRRNDQSVLDSGAGPEFNMSYFTEISSTPRSNVVGQTEVFQGYGSASAFDSLEQTQSHRFTPRAECYCEPDVGENHADSKEMAREARRKLKEERQRKKERKRIKKARLEKECLSEKMNCFSHDNQHWRTAPLWNDSPFCFCMNANNNTYSCLRTINGTHNFLYCEFTTGLITFYNLTIDRFETINRAAGLTPGERSHMHDALDQLKSCRGRSCSIRRHQNHLEGGSSAPLLPINQVHRNNKRKHSPLAGAVGNYAFVGPRLDMEALPPIKRRKLSKYNRLTGSQQSHMKRRPWKQTPLQQSPRFLRTHSVTPAQA”, the protein production result is reported as “failed”.

In the case of “MMRKHFLSRSSLRAIVLCVSLGTLSAQAVSVPNAIAQSSLPASPLDSFYSSIPSGENTVAGTVLSEQVIPTGLLDATIKVKRIAYSSTHPSGRMVPTIATILTPTAPWTGSGPRPAALLAPGTQGAGDQCAPSKLITVGAEYELFPAIMLLRRGWTVAITDYQGLGTIGAHTYMNRKAQGAALLDLGRAVVNVKYPEVRKDAPLILWGYSQGGGASAAAAEMHASYAPDVNIRGGFAGGVPAELLATARSLEGSPLLGALGYAISGMYETHPELRLEVDDLLNDRGKQWIIDSGTHCLLDSFRTMPIPDSRVMTRSGQRLTDLLGSKVFHSYFEEQRLGKVAPDVPMFVSQGANDDIIPAQQARDMVSNWRDLGADVTYFEDPAPLLVRMEGHVRPLVTSFDPALQWAEKLLGSEVINPPSAS”, the protein production result is recorded as “failed”.

As for “MMRRQRDEQQSRVFYDLSSLVLNLLRSPPMPISLPDHFPDPPARIRPPFSSHRFSSSSPSLAHISPSGFASLLLGISVALMLCGSVTFFIGFLLMPWVLALILVFYVAGIVSAISMVGRSILCYVLTPPSPSGKEISEWKLL”, the protein production entry is “failed”.

As to “MMRRVSLGSRLALLFAACTATVSLGAGLLFSRASEQHFVELDQQLLDSRLSLFRTQLAGVSTADELQARLPALRDELSHQADLALRISASNGATWFESRSGLPHAAQATGLATLHAPGIDYRSLSVPLTQGAMQSPRLTLYLDITHHQHFLQGMQRLIWLTVGLSALITALLGAWAARSGLRPLRQMGQVAASVSARSLTTRLPVAQMPEELAELASSMNAMLQRLDDAFQRLSAFSADIAHELRTPLSNLLTHTQVTLTRPRSLEEYREALHGNLEELQWMAQMINDMLFLAKADHGLLVPGDAPLALHDEVDALLEYYAPLAEDSDVQMLREGEAVLHGDQHMLRRALSNLLDNAMRFTPAGGQIKVTLGPGPTINVANTGLAIDPAALPRLFDRFYRVDPARREGSSEHAGLGLAITRSIVQAHGGCIRAECEGGWTRFVIEFTQDR”, the protein production result is “failed”.

For “MMSAQRVVRTVRTARAISTALAVAIVLGTGVAWSSVRSFEDGIFHMSAPSLGHGGDDGAIDILLVGLDSRTDAHGNPLSAEELATLHAGDEEATNTDTIILIRVPNNGKSATAISIPRDSYVAAPGLGKTKINGVYGQTRETKRAGLVQAGASPTEAAAAGTEAGREALIKTVADLTGVTVDHYAEIGLLGFALIADALGGVDVCLKEPVYEPLSGADFPAGRQKLNGPQALSFVRQRHDLPRGDLDRVVRQQAVMAALAHRVISGQTLSSPATLKRLEQAVQRSVVLSSGWDIMDFVRQLQKLAGGNVAFATIPVLDGAGWSDDGMQSVVRVDPRQVQDWVVGLLHEQDQGKTDELAYTPAKTTANVVNDTDINGLAAAVSKVLSSKGFTTGSVGNNDGDHVPGSQVRAAKADDLGAQQVAKELGGLPVVADASIAPGSVRVVLANDYSGPGSGLGGSDPNGVVSPARAFNLGSADDTTPPPSPILTAGSDAPECIN”, the protein production result is given as “failed”.

Regarding “MMSQISLADLNAADKADFVAALANVVEYSPWIAEKLAGQRPFTGINQLHAALMAAIQSAEPDVQLALIRAHPDLANKTQRAAGLTAESTDEQNSAGLDRLSDAEYAAFERVNNAYREKFGFPYIVCVRRHTKDSVLRDFETRLLNIAKTETRRAIEEIGRISALRLDQLVVADDKLKVHGRLSTHVLDNHAGKPAPGIPVELIELASLGESRVIARTVTNADGRTDQPLIGGRPLPIGRYELRFRVAKYYAERNVPLSEPPFLDEIPLRFAISEPENHYHVPLLVTPWSYATYRGS”, the protein production result is on record as “failed”.

On to “MMTGRKRGMIMSRRIITIGRQYGSNGRRIAKKLSEKLGIHYYDKELIKLASEQNDISYDELVKVDEKRANPWRYPVEDPAQMESRFRFEPMNDVLFYTQAQIITRLADTEDCIIVGRCANDILKSRPTSRSIFIHAPLDYRLQTVMERTSLEEKEALSLIKKVDKQRKFYYNYYTDKKWEEMSQYDLCLDSSAMSEDEILNVLTALYESIL”, for which the protein production result is listed as “failed”.

Source of the values: a protein production outcome set (Wang et al. 2014).
